According to US20220229068A1, “DETECTION OF PROTEIN TO PROTEIN INTERACTIONS” (THE GOVERNING COUNCIL OF THE UNIVERSITY OF TORONTO, priority 2019, published 2022):

B1: C25 split intein: IC aa13-aa37 of WT IC; IN aa1-aa88 of WT IN + aa1-aa12 of WT IC (SEQ ID NO: 3, 4) (protein)
chain 1: CLDLKTQVQTPQGMKEISNIQVGDLVLSNTGYNEVLNVFPKSKKKSYKITLEDGKEIICSEEHLFPTQTGEMNISGGLKEGMCLYVKEMMLKKILKIEEL
chain 2: DERELIDIEVSGNHLFYANDILTHN
modifications: Synthetic GP41-1 IN (C25); Synthetic GP41-1 IC (C25)
B2: WT form of GP41-1: natural GP41-1 split intein, split at C37 (SEQ ID NO: 1, 2) (protein)
chain 1: CLDLKTQVQTPQGMKEISNIQVGDLVLSNTGYNEVLNVFPKSKKKSYKITLEDGKEIICSEEHLFPTQTGEMNISGGLKEGMCLYVKE
chain 2: MMLKKILKIEELDERELIDIEVSGNHLFYANDILTHN
modifications: Synthetic GP41-1 IN (WT); Synthetic GP41-1 IC (WT)

Target: T1, FRB/FKBP1A interaction (Homo sapiens, UniProt P42345+P62942)
T1 construct: expressed in transfected cells; host or cells: HEK 293 (also HeLa, PC9)
T1 sequence (P42345 with tags, fused parts or gaps): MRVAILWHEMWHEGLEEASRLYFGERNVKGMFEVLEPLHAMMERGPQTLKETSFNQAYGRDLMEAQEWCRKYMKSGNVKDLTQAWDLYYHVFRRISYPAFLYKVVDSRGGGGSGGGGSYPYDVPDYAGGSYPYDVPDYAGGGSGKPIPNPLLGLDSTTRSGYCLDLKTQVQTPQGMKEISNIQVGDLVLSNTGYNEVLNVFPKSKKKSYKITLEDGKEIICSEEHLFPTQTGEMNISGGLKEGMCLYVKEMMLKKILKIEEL
T1 sequence (P62942 with tags, fused parts or gaps): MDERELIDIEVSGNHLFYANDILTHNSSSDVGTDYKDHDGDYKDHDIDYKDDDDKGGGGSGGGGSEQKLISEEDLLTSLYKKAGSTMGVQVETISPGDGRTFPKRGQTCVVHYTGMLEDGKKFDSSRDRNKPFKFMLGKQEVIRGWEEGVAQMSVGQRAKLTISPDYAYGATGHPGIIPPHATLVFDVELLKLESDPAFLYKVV
Type: cell-based
Conditions: FRB-IN/IC-FKBP1A in HEK 293, Western blot
Experimental: Cell culture and treatment. […] These cells were grown in DMEM supplemented with 10% fetal calf serum (Life Technologies). […] For ELISA assay, cells were seeded in 96 well (Sarstedt AG & Co) or 384 well plates (Greiner Bio-One) with 15,000 (96 well) or 5,000 (384 well) cells per well. Cells were transfected with various plasmids with polyethylenimine (PEI) Max (Polysciences) [40]. Expression in HEK 293 Flp-In T-Rex cells was induced by treating the cells with tetracycline (1 μg/ml) for 6-16 hrs. […] Stable cell lines were created according to the manual of Flp-In T-REx (Invitrogen). Briefly, plasmid containing both bait and prey DNA and pOG44 plasmid (1:10 ratio) were cotransfected into HEK 293 Flp-In T-Rex cells.
Western blot analysis and immunoprecipitation. Cells were lysed in buffer H (Triton X 100 1%, β-glycerophosphate pH7.3 50 mM, EGTA 1.5 mM, EDTA 1 mM, orthovanadate 0.1 mM, DTT 1 mM supplemented with protease inhibitors (Roche)). After centrifugation at 21,000×g for 10 min, the supernatants were mixed with Laemmli sample buffer, boiled at 95° C. for 3-5 min and subjected to Western blot analysis. For immunoprecipitations, supernatants (0.3 ml) were incubated with antibodies at 4° C. with rotation for one hour, followed by another hour of incubation with protein G sepharose beads (GE Healthcare). […]

| Molecule | self-association / splicing in the absence of rapamycin |
| --- | --- |
| B1 | minimal self-association |
| B2 | relatively high level of FRB/FKBP1A splicing even in the absence of rapamycin treatment |
